Consider one molecule from patent JP2018087218A (dated 2018).

This experiment concerns the target T1, ヒトCD38 (SPRで注入されたCD38) (human, UniProt P28907 43-300).
T1 sequence: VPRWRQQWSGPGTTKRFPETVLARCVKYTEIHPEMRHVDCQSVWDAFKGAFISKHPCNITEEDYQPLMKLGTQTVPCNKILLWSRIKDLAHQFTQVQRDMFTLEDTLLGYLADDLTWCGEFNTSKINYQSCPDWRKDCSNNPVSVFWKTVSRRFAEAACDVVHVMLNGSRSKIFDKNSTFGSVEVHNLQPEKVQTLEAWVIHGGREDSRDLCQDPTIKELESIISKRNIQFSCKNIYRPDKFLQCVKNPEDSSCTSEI
The experiment is described as follows: SPR (Biacore), antibody captured on protein A, CD38 injected. On the technique in general: SPR reads the build-up and loss of mass on a sensor chip optically.

B1: X02.1 (antibody, human IgG4 S228P, lambda, V domains shown)
VH: QLQLQESGPGLVKPSETLSLTCTVSGGSISSSSYYWSWIRQHPGKGLEWIGYIYYSGSTNYNPSLKSRVTISVDTLKNQISLRLTSVTAADTAVYYCARVGGAGGWPMDVWGQGTTVTVSS
VL: QAVLTQPASLSASPGESARLTCTLPSDINVRYYNIYWYQQKPGSPPRYLLYYYSDSHKGQGSGVPSRFSGSKDVSTNSGILLISGLQSEDEADYYCMTWSSNGSGVFGGGTQLTVLG
notes: X02.1 has no IFN fusion; also called 親抗体X02.1; A02.1 (X355/02-HC-L0-IFN-アルファ(A145D)IgG4) の非融合抗体
Usually Kd stands for the concentration at which binding is half-saturated. Low readings indicate tighter binding, high ones weaker binding. B1 registered a Kd of 0.378 to 27 nM.
